Test results taken from publication PMC9482650, “Quantitative fragmentomics allow affinity mapping of interactomes” (Nature Communications, 2022).

T1: MPP7, Q5T2T1
T1 sequence (Q5T2T1 134-230, limits assumed, looked up): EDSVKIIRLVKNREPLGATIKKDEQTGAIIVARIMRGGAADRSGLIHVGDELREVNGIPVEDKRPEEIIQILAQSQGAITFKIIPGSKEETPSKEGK

T2: APBA1_1, Q02410
T2 sequence (Q02410 651-752, limits assumed, looked up): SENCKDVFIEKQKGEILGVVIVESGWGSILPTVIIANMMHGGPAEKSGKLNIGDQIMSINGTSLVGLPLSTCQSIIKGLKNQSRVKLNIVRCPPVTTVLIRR

T3: SYNJ2BP, P57105
T3 sequence (P57105 8-110, limits assumed, looked up): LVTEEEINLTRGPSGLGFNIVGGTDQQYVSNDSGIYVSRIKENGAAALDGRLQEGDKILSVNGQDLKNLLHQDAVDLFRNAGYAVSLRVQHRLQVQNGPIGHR

T4: TJP3_3, O95049
T4 sequence (O95049 375-456, limits assumed, looked up): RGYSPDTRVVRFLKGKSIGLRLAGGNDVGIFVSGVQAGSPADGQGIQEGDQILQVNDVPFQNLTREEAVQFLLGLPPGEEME

T5: GRIP1_5, Q9Y3R0
T5 sequence (Q9Y3R0 568-668, limits assumed, looked up): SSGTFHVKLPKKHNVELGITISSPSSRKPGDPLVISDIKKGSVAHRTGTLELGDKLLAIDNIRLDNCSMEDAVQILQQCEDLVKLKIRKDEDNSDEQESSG

T6: APBA2_1, Q99767
T6 sequence (Q99767 563-664, limits assumed, looked up): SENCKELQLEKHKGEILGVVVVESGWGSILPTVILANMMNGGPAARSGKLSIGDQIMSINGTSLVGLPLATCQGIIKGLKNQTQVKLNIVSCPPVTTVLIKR

T7: GRIP1_3, Q9Y3R0
T7 sequence (Q9Y3R0 247-346, limits assumed, looked up): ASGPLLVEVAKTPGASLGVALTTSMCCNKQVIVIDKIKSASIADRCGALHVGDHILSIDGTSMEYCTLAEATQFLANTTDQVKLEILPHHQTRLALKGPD

T8: GRIP1_2, Q9Y3R0
T8 sequence (Q9Y3R0 145-248, limits assumed, looked up): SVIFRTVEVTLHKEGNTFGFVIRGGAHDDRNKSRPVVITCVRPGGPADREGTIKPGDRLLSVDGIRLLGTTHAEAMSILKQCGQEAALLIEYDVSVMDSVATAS

T9: GRIP1_7, Q9Y3R0
T9 sequence (Q9Y3R0 999-1096, limits assumed, looked up): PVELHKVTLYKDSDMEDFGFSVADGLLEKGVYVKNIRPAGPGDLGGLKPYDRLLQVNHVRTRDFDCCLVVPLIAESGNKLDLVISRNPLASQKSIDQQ


How the values were obtained:
Assay in all cases: holdup assay
Design in all cases: key: below the threshold = too weak to quantify, mostly under pKd 3.1 to 4
Conditions in all cases: plain residues with an end cap or a label only (N-terminal biotin on a linker: ado-ado)
GORASP2, Q9H8Y8 = biological target: GORASP2, Q9H8Y8
DLG5_1, Q8TDM6 = biological target: DLG5_1, Q8TDM6
Chain of DLG5_1, Q8TDM6 (Q8TDM6 617-713): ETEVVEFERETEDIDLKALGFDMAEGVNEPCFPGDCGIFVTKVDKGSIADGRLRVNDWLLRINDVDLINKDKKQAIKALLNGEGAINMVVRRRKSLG

LAP2, Q96RT1 = biological target: LAP2, Q96RT1
Chain of LAP2, Q96RT1 (Q96RT1 other isoform, or with tags, fused parts or gaps): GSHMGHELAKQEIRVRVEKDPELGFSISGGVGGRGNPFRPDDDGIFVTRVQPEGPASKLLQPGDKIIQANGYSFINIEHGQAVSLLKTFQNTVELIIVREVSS

MPP7, Q5T2T1 = biological target: T1, MPP7, Q5T2T1
SCRIB_1, Q14160 = biological target: SCRIB_1, Q14160
Chain of SCRIB_1, Q14160 (Q14160 718-814): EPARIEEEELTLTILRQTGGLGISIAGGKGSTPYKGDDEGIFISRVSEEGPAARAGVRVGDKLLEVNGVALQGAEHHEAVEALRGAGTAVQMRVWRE

APBA1_1, Q02410 = biological target: T2, APBA1_1, Q02410
MAGI2_2, Q86UL8 = biological target: MAGI2_2, Q86UL8
Chain of MAGI2_2, Q86UL8 (Q86UL8 410-522): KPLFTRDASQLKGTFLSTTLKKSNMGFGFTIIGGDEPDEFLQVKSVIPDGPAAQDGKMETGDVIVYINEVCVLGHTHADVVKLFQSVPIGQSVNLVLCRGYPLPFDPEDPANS

SYNJ2BP, P57105 = biological target: T3, SYNJ2BP, P57105
GRIP2_4, Q9C0E4 = biological target: GRIP2_4, Q9C0E4
Chain of GRIP2_4, Q9C0E4 (Q9C0E4 446-548): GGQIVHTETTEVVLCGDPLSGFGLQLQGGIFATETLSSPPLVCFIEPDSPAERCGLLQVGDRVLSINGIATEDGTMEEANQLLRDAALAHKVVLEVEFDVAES

HTRA2, O43464 = biological target: HTRA2, O43464
Chain of HTRA2, O43464 (O43464 355-458): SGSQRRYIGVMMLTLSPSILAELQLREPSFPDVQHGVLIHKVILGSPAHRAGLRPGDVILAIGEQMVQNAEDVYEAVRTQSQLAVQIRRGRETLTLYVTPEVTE

TJP3_3, O95049 = biological target: T4, TJP3_3, O95049
GRIP2_5, Q9C0E4 = biological target: GRIP2_5, Q9C0E4
Chain of GRIP2_5, Q9C0E4 (Q9C0E4 544-642): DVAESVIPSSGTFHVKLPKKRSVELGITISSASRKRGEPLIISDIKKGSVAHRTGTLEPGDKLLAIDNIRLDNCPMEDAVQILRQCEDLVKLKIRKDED

GRIP1_5, Q9Y3R0 = biological target: T5, GRIP1_5, Q9Y3R0
TJP2_1, Q9UDY2 = biological target: TJP2_1, Q9UDY2
Chain of TJP2_1, Q9UDY2 (Q9UDY2 24-128): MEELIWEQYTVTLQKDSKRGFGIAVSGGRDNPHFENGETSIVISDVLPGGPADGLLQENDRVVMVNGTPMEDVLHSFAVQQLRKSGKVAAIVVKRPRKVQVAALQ

GRIP2_6, Q9C0E4 = biological target: GRIP2_6, Q9C0E4
Chain of GRIP2_6, Q9C0E4 (Q9C0E4 648-740): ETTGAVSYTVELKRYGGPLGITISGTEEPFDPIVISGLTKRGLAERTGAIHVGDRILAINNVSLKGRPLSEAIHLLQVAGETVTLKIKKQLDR

APBA2_1, Q99767 = biological target: T6, APBA2_1, Q99767
GRIP1_3, Q9Y3R0 = biological target: T7, GRIP1_3, Q9Y3R0
MAGI2_4, Q86UL8 = biological target: MAGI2_4, Q86UL8
Chain of MAGI2_4, Q86UL8 (Q86UL8 772-865): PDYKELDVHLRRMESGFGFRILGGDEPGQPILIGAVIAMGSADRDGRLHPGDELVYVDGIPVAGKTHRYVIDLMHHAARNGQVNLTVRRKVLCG

PDZRN4_1, Q6ZMN7 = biological target: PDZRN4_1, Q6ZMN7
Chain of PDZRN4_1, Q6ZMN7 (Q6ZMN7 213-318): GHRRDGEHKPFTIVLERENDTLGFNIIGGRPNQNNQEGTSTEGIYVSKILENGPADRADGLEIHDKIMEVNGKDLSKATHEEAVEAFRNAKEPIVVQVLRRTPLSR

Inadl_2, Q8NI35 = biological target: Inadl_2, Q8NI35
Chain of Inadl_2, Q8NI35 (Q8NI35 238-335): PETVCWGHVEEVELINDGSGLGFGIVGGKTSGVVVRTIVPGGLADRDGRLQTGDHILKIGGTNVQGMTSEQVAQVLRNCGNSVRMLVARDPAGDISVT

GRID2IP_1, A4D2P6 = biological target: GRID2IP_1, A4D2P6
Chain of GRID2IP_1, A4D2P6 (A4D2P6 1-87): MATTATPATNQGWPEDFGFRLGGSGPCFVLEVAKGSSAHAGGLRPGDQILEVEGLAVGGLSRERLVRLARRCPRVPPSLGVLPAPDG

SCRIB_2, Q14160 = biological target: SCRIB_2, Q14160
Chain of SCRIB_2, Q14160 (Q14160 857-960): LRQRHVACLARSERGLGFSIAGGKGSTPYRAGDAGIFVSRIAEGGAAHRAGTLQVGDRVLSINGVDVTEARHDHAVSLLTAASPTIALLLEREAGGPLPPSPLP

GRIP2_7, Q9C0E4 = biological target: GRIP2_7, Q9C0E4
Chain of GRIP2_7, Q9C0E4 (Q9C0E4 934-1023): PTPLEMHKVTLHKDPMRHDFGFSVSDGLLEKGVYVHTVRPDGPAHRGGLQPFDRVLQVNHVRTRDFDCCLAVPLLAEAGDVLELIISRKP

CASK, O14936 = biological target: CASK, O14936
Chain of CASK, O14936 (O14936 487-570): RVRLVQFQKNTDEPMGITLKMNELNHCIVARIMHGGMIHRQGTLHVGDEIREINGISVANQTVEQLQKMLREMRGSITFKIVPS

FRMPD4, Q14CM0 = biological target: FRMPD4, Q14CM0
Chain of FRMPD4, Q14CM0 (Q14CM0 67-160): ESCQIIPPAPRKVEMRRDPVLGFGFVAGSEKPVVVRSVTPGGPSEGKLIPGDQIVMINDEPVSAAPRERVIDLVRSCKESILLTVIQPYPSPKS

SNX27, Q96L92 = biological target: SNX27, Q96L92
GRIP1_2, Q9Y3R0 = biological target: T8, GRIP1_2, Q9Y3R0
GRIP1_7, Q9Y3R0 = biological target: T9, GRIP1_7, Q9Y3R0

Binder	pKd (GORASP2, Q9H8Y8)	pKd (DLG5_1, Q8TDM6)	pKd (LAP2, Q96RT1)	pKd (MPP7, Q5T2T1)	pKd (SCRIB_1, Q14160)	pKd (APBA1_1, Q02410)	pKd (MAGI2_2, Q86UL8)	pKd (SYNJ2BP, P57105)	pKd (GRIP2_4, Q9C0E4)	pKd (HTRA2, O43464)	pKd (TJP3_3, O95049)	pKd (GRIP2_5, Q9C0E4)	pKd (GRIP1_5, Q9Y3R0)	pKd (TJP2_1, Q9UDY2)	pKd (GRIP2_6, Q9C0E4)	pKd (APBA2_1, Q99767)	pKd (GRIP1_3, Q9Y3R0)	pKd (MAGI2_4, Q86UL8)	pKd (PDZRN4_1, Q6ZMN7)	pKd (Inadl_2, Q8NI35)	further results
GNDPDRGTSI [GRID2, O43424]	below the threshold	below the threshold	below the threshold	below the threshold	below the threshold	below the threshold	below the threshold	4.72	below the threshold	below the threshold	below the threshold	below the threshold	below the threshold	below the threshold	below the threshold	below the threshold	below the threshold	below the threshold	3.49	below the threshold	pKd (GRID2IP_1, A4D2P6): below the threshold; pKd (SCRIB_2, Q14160): below the threshold; pKd (GRIP2_7, Q9C0E4): below the threshold; pKd (CASK, O14936): below the threshold; pKd (FRMPD4, Q14CM0): below the threshold; pKd (SNX27, Q96L92): below the threshold; pKd (GRIP1_2, Q9Y3R0): below the threshold; pKd (GRIP1_7, Q9Y3R0): below the threshold
SGDGKTSVWI [GJC1, P36383]	5.03	below the threshold	3.81	below the threshold	3.94	3.69	below the threshold	below the threshold	below the threshold	4.25	4.44	below the threshold	below the threshold	4.82	3.55	below the threshold	below the threshold	below the threshold	below the threshold	below the threshold	pKd (GRID2IP_1, A4D2P6): below the threshold; pKd (SCRIB_2, Q14160): below the threshold; pKd (GRIP2_7, Q9C0E4): 4.37; pKd (CASK, O14936): below the threshold; pKd (FRMPD4, Q14CM0): below the threshold; pKd (SNX27, Q96L92): 3.56; pKd (GRIP1_2, Q9Y3R0): below the threshold; pKd (GRIP1_7, Q9Y3R0): below the threshold
PGKKPEDSRV [SLCO2B1, O94956]	below the threshold	below the threshold	3.52	below the threshold	below the threshold	below the threshold	3.64	4.15	below the threshold	below the threshold	below the threshold	3.5	below the threshold	below the threshold	below the threshold	below the threshold	below the threshold	below the threshold	below the threshold	below the threshold	pKd (GRID2IP_1, A4D2P6): below the threshold; pKd (SCRIB_2, Q14160): below the threshold; pKd (GRIP2_7, Q9C0E4): below the threshold; pKd (CASK, O14936): below the threshold; pKd (FRMPD4, Q14CM0): below the threshold; pKd (SNX27, Q96L92): 4.43; pKd (GRIP1_2, Q9Y3R0): below the threshold; pKd (GRIP1_7, Q9Y3R0): below the threshold
EPAKETTTNV [SLC2A3, P11169]	3.49	below the threshold	3.64	below the threshold	below the threshold	below the threshold	3.51	below the threshold	below the threshold	below the threshold	below the threshold	below the threshold	below the threshold	below the threshold	below the threshold	below the threshold	below the threshold	3.57	below the threshold	below the threshold	pKd (GRID2IP_1, A4D2P6): below the threshold; pKd (SCRIB_2, Q14160): 3.68; pKd (GRIP2_7, Q9C0E4): below the threshold; pKd (CASK, O14936): below the threshold; pKd (FRMPD4, Q14CM0): 3.52; pKd (SNX27, Q96L92): 4.95; pKd (GRIP1_2, Q9Y3R0): below the threshold; pKd (GRIP1_7, Q9Y3R0): below the threshold
